This assay addresses human GLP-1 receptor (human) (UniProt P43220). Put plainly: cell-based or functional assay.

Sequence of human GLP-1 receptor (human) (P43220 24-463): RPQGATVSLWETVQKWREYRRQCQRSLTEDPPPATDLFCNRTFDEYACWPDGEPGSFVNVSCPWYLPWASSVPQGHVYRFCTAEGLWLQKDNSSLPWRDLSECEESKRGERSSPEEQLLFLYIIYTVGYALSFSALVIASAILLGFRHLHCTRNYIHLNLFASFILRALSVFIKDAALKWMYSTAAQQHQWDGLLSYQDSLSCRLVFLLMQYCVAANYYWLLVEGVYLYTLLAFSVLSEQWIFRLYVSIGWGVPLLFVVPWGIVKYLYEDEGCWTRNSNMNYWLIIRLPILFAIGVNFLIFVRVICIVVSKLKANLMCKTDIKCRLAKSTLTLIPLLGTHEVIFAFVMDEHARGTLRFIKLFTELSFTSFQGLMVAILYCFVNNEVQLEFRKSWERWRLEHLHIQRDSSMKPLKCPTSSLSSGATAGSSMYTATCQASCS

“GMA102 (proprietary fusion protein of GLP-1R antibody and GLP-1)” gave an EC50, CRE-Luciferase reporter gene assay on CHO-DHFR- cells co-expressing hGLP1R of 0.016 nM.
